This assay addresses biotinylated gp41 MPER peptide RRR-(656-683)-RRK-biotin (HIV-1). The experiment in a line: SPR: biotinylated MPER peptide on an SA chip, Fab as analyte, 1:1 Langmuir fit. A general note: SPR reads the build-up and loss of mass on a sensor chip optically.

The Kd is the free concentration of one partner at which half of the binding sites on the other are occupied at equilibrium, for simple one-to-one binding. High values mean a looser complex, low ones a tighter complex. With 4E10 Fab, the equilibrium dissociation constant (Kd) was found to be 0.74 nM.
2F5 Fab yielded a Kd of 3.8 nM.

(Values after patent publication US20140348785A1.)
